Laboratory results published in US20060073149A1 (published 2006).

Target: T1, Soluble Aβ 1-40 (UniProt P05067 672-711)
T1 construct: domain: Aβ 1-40
Assay: SPR (BIAcore), alternate method: antibody captured on protein A or A/G, Aβ 1-40 in flow, 5 h dissociation, 1:1 model with mass transfer; alternate method: antibody captured on protein A or A/G, 5 h dissociation
Protocol: Protein A or protein A/G is immobilized via amine coupling to flow cells 1 and 2 of a B1 or CM5 sensor chip (BIAcore). The test antibody is then captured in flow cell 2 at desired levels (usually a 10-60 second injection of antibody) and 5 minutes is allowed for the antibody to stabilize. […] Each concentration is injected over the surface for 5 minutes at a flow rate of 50 μL/min. […] Aβ 1-40 and antibody are then eluted from both flow cells with a 40 second injection of glycine (pH 1.5). The signal is allowed to stabilize for 2 minutes before the next cycle. The data from flow cell 1 is subtracted from flow cell 2 to account for any bulk shifts due to buffer differences or non-specific binding to the sensor chip or protein A. The various concentrations are injected randomly and each concentration is run in duplicate. Two 0 nM runs are used to control for any dissociation of antibody from the protein A or A/G capture surface. The data is analyzed using the Biaevalution software. A 1:1 model with mass transfer and a local Rmax is used as the best fit for the data.

B1: humanized 266 antibody (antibody, human IgG1, kappa, V domains shown)
VH: EVQLVESGGGLVQPGGSLRLSCAASGFTFSRYSMSWVRQAPGKGLELVAQINSVGNSTYYPDTVKGRFTISRDNAKNTLYLQMNSLRAEDTAVYYCASGDYWGQGTLVTVSS
VL: DVVMTQSPLSLPVTLGQPASISCRSSQSLIYSDGNAYLHWFLQKPGQSPRLLIYKVSNRFSGVPDRFSGSGSGTDFTLKISRVEAEDVGVYYCSQSTHVPWTFGQGTKVEIKR
  Kd: 0.4 nM
